{"source": "patent US20230097381A1", "about": "“COMPOSITION, KIT AND METHOD FOR DIAGNOSIS AND TREATMENT OF PROSTATE CANCER” (RADIOMEDIX, INC., priority 2020, published 2023)", "key": {"[1]": {"test_system": "PSMA-overexpressing LNCap and 22Rv1-derived xenografts", "design": "species or system Athymic Nude Mice", "settings": "mouse, in vivo", "experimental": "About 5×10^6 LNCap and 22Rv1 cells suspended in 100 μL of RPMI 1640 with 50% Matrigel (Corning, Corning, N.Y.) were subcutaneously injected into upper flank of 6-7-week-old mice. Xenografts were generated in Athymic Nude Mice (Envigo, Indianapolis, Ind. and Taconic, Rensselaer, N.Y.). When xenograft tumor reached the size of 0.25 cm^3 in diameter, all mice were randomly divided in groups for PET imaging and biodistribution studies.\nPET/X-Ray imaging studies were performed using GENISYS^4 scanner (Sofie Bioscience, Curlver City, Calif.). Mice were anesthetized using with isoflurane (2% in 98% oxygen) and their temperature was kept at 38° C. with a heating lamp during injection of the agent and image acquisition All images were corrected for photon attenuation, but scatter correction was not applied. Maximum-Likehood Expectation Maximization was used to create final images volumes. Static PET scans were acquired approximately at 1 h, 2 h, 4 h after intravenous injection of ^64Cu-DOTAM-PSMA in 200 μL volume. The image acquisition time was 10 minutes. VivoQuant software (Invicro, Boston, Mass.) was used to determine the ROI (Sum) for tumor, liver, kidney, muscle and salivary gland which were equivalent to % ID/g uptake of agent at various time points."}, "in vivo [2]": {"experiment": "in vivo", "design": "species or system athymic nude mice", "settings": "athymic nude, mouse, iv, total radioactivity", "experimental": "(§1) Mice bearing LNCap and 22Rv1 xenografts were injected via the tail vein with 50-100 μCi of ^64Cu-DOTAM-PSMA reconstituted in 150-200 μL of saline. At 1 h, 2 h, and 24 hrs. post injection, while under anesthesia blood was collected by cardiac puncture and mice were sacrificed by cervical dislocation. The heart, lung liver, stomach, pancreas, spleen fat, kidney, muscle, intestines, skin and tumor were collected. Each organ was weighed, and the tissue radioactivity was measured with an automated gamma counter (2470 Wizard2 Gamma Counter, Perkin-Elmer, Waltham, Mass.). The percentage of injected dose per gram of tissue (% ID/g) was calculated. All measurements were corrected for decay."}, "[3]": {"test_system": "LNCap and 22Rv1 xenografts", "design": "species or system R2G2 strain of mice", "settings": "mouse, in vivo", "experimental": "as §1, with “[…] strains of mice” for “Mice”"}, "in vivo [4]": {"experiment": "in vivo", "design": "species or system athymic nude mice", "settings": "athymic nude, mouse, iv, 40 uCi, total radioactivity", "experimental": "(§2) Athymic strains of mice bearing LNCap xenografts were injected via the tail vein with 40 μCi of ^203Pb-DOTAM-PSMA reconstituted in 200-250 μL of saline. At 1 h and 3 h post injection, while under anesthesia blood was collected by cardiac puncture and mice were sacrificed by cervical dislocation. The heart, lung liver, stomach, pancreas, spleen fat, kidney, muscle, intestines, skin and tumor were collected. Each organ was weighed, and the tissue radioactivity was measured with an automated gamma counter (2470 Wizard2 Gamma Counter, Perkin-Elmer, Waltham, Mass.). The percentage of injected dose per gram of tissue (% ID/g) was calculated. All measurements were corrected for decay."}, "LNCap xenografts [5]": {"test_system": "LNCap xenografts", "experiment": "in vivo", "design": "species or system athymic nude mice", "settings": "mouse", "experimental": "as §2"}, "in vivo [6]": {"experiment": "in vivo", "design": "species or system athymic nude mice", "settings": "athymic nude, mouse, iv, 15 uCi, total radioactivity", "experimental": "as §2, with “with 15” for “with 40”, “of ^212Pb-DOTAM-PSMA” for “of ^203Pb-DOTAM-PSMA”, “in 150-200” for “in 200-250”, “1 h,” for “1 h and”, “3 h,” for “3 h”, “calculated. AH” for “calculated. All”"}, "LNCap xenografts [7]": {"test_system": "LNCap xenografts", "experiment": "in vivo", "design": "species or system athymic nude mice", "settings": "mouse", "experimental": "as §2, with “with 15” for “with 40”, “of ^212Pb-DOTAM-PSMA” for “of ^203Pb-DOTAM-PSMA”, “in 150-200” for “in 200-250”, “1 h,” for “1 h and”, “3 h,” for “3 h”, “calculated. AH” for “calculated. All”", "remark": "listed apart in the source"}}, "data": [{"smiles": "NC(=O)CN1CCN(CC(N)=O)CCN(CC(=O)N[C@H](Cc2ccccc2)C(=O)N[C@H](Cc2ccccc2)C(=O)N[C@H](CCCCNC(=O)CCCCCCC(=O)NCCCC[C@H](NC(=O)N[C@@H](CCC(=O)O)C(=O)O)C(=O)O)C(=O)O)CCN(CC(N)=O)CC1", "note": "[^64Cu-DOTAM-PSMA, metal not drawn]", "values": [{"measurement": "highest non-target uptake of agent (organ)", "setting": "[1]", "result": "liver"}, {"measurement": "retention in LNCap and 22Rv1-derived tumors (microPET)", "setting": "[1]", "result": "confirmed retention"}, {"measurement": "tumor retention in LNCap and 22Rv1 cancer cells (microPET)", "setting": "[1]", "result": "confirmed its tumor retention"}, {"measurement": "tissue uptake at 24 h", "setting": "in vivo [2]; Retention in tumor", "result": "10 ± 11.1", "unit": "%ID/g"}, {"measurement": "tissue uptake at 2 h", "setting": "in vivo [2]; Tumor uptake", "result": "24.8 ± 31.1", "unit": "%ID/g"}, {"measurement": "tissue uptake at 4 h", "setting": "in vivo [2]; Tumor uptake", "result": "9.7 ± 10.9", "unit": "%ID/g"}, {"measurement": "tissue uptake at 2 h", "setting": "in vivo [2]; off-target accumulation in kidneys", "result": "20 ± 2.9", "unit": "%ID/g"}, {"measurement": "tissue uptake at 2 h", "setting": "in vivo [2]; off-target accumulation in liver", "result": "45.8 ± 6.2", "unit": "%ID/g"}, {"measurement": "tissue uptake at 4 h", "setting": "in vivo [2]; renal retention", "result": "13 ± 0.6", "unit": "%ID/g"}, {"measurement": "tissue uptake at 24 h", "setting": "in vivo [2]; uptake in kidneys", "result": "7.8 ± 7.9", "unit": "%ID/g"}, {"measurement": "tissue uptake at 24 h", "setting": "in vivo [2]; uptake in liver", "result": "12.4 ± 11.9", "unit": "%ID/g"}, {"measurement": "liver retention of trans-chelated Cu64, comparison of strains", "setting": "[3]", "result": "higher in R2G2 mice strain compared to NOG strain but it was still lower the one observed in athymic nude"}, {"measurement": "tumor retention, R2G2 strain versus NOG strain", "setting": "[3]", "result": "much more favorable in R2G2 strain than NOG strain"}]}, {"smiles": "NC(=O)CN1CCN(CC(N)=O)CCN(CC(=O)N[C@H](Cc2ccccc2)C(=O)N[C@H](Cc2ccccc2)C(=O)N[C@H](CCCCNC(=O)CCCCCCC(=O)NCCCC[C@H](NC(=O)N[C@@H](CCC(=O)O)C(=O)O)C(=O)O)C(=O)O)CCN(CC(N)=O)CC1", "note": "[^203Pb-DOTAM-PSMA, metal not drawn]", "values": [{"measurement": "tissue uptake at 1 h", "setting": "in vivo [4]", "result": "16.1 ± 0.8", "unit": "%ID/g"}, {"measurement": "tissue uptake at 3 h", "setting": "in vivo [4]", "result": "> 4.8", "unit": "%ID/g"}, {"measurement": "decrease of renal retention", "setting": "LNCap xenografts [5]", "result": 32, "unit": "%"}, {"measurement": "normal organs distribution, ^203Pb- versus ^212Pb-DOTAM-PSMA", "setting": "LNCap xenografts [5]", "result": "very similar normal organs distribution"}]}, {"smiles": "NC(=O)CN1CCN(CC(N)=O)CCN(CC(=O)N[C@H](Cc2ccccc2)C(=O)N[C@H](Cc2ccccc2)C(=O)N[C@H](CCCCNC(=O)CCCCCCC(=O)NCCCC[C@H](NC(=O)N[C@@H](CCC(=O)O)C(=O)O)C(=O)O)C(=O)O)CCN(CC(N)=O)CC1", "note": "[^212Pb-DOTAM-PSMA, metal not drawn]", "values": [{"measurement": "tissue uptake at 1 h", "setting": "in vivo [6]; Tumor uptake", "result": "5.7 ± 0.9", "unit": "%ID/g"}, {"measurement": "tissue uptake at 3 h", "setting": "in vivo [6]; Tumor uptake", "result": "7.2 ± 2.6", "unit": "%ID/g"}, {"measurement": "tissue uptake at 1 h", "setting": "in vivo [6]; renal retention", "result": "32.2 ± 15.6", "unit": "%ID/g"}, {"measurement": "tissue uptake at 3 h", "setting": "in vivo [6]; renal retention", "result": "17.7 ± 9.4", "unit": "%ID/g"}, {"measurement": "decrease of renal retention", "setting": "LNCap xenografts [7]", "result": 55, "unit": "%"}, {"measurement": "uptake in bone and spleen", "setting": "LNCap xenografts [7]", "result": "not uptake of agent in bone and spleen"}]}]}
